Measured values published in paper PMC3277882, “Structure and Kinetic Stability of the p63 Tetramerization Domain” (Journal of Molecular Biology, 2012).
One block for each molecule: values may come before it.

Experiments:
[1] = molecular target: human p63 tetramerization domain lacking the H2 helix, p63(359–388) (human); experiment: crystal structure; p63(359–388) SeMet, sitting drop at 17 °C, 30% polyethylene glycol 400, 0.1 M Hepes (pH 7.5), 0.2 M Mg chloride; space group P1, one tetramer in the asymmetric unit; 1.9 Å
[2] = molecular target: human p63 full-length tetramerization domain variant, p63(356–411) (human); experiment: native MS; nESI-MS of subunit exchange: equal amounts of 12C-14N and 13C-15N protein mixed, 10 μM each (monomer concentration), 500 mM ammonium acetate (pH 6.9), 37 °C; half-life of tetramer dissociation from kinetic modeling
[3] = molecular target: human p63 tetramerization domain, p63(359–402) (human); experiment: crystal structure; p63(359–402), sitting drop at 17 °C, 10% polyethylene glycol 8000, 0.1 M Hepes (pH 7.5), 0.2 M Ca acetate; space group P422, one monomer in the asymmetric unit; 2.15 Å
[4] = molecular target: the molecule itself; experiment: native MS; nESI-MS of subunit exchange: equal amounts of 12C-14N and 13C-15N protein mixed, 10 μM each (monomer concentration), 500 mM ammonium acetate (pH 6.9), 37 °C; half-life of tetramer dissociation from kinetic modeling
[5] = molecular target: the molecule itself; experiment: as above; remark: listed apart in the source

stoichiometry N [1]: 4
Molecule: human p63 tetramerization domain lacking the H2 helix, p63(359–388) (domain or fragment)

half-life of the tetramer, t1/2 [2]: 7 min
stoichiometry N [2]: 4
Molecule: human p63 full-length tetramerization domain variant, p63(356–411) (domain or fragment)

stoichiometry N [3]: 4
Molecule: human p63 tetramerization domain, p63(359–402) (domain or fragment)

B1: human p73 full-length tetramerization domain variant, p73(351–399) (domain or fragment)
chain: GSDEDTYYLQVRGRENFEILMKLKESLELMELVPQPLVDSYRQQQQLLQRP
notes: Gly-Ser dipeptide left at the N terminus by the cloning strategy (after thrombin cleavage); human p73 tetramerization domain, residues 351-399; In the subunit exchange experiment an unlabeled (12C-14N) and a uniformly 13C-15N labeled sample of the same construct were mixed; also called p73 tetramerization domain; not shown: His6, N-terminal, cleaved; lipoyl domain, N-terminal, cleaved
half-life of the tetramer, t1/2 [4]: 77 ± 5 min
stoichiometry N [5]: 4
